From the supplement of paper PMC9170038

Test system: MS2 coat protein
Assay: apparent KD of MS2 coat protein; designed switch direction (-1 OFF switch, 1 ON switch): -1; higher = weaker reporter binding
Outline: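 Designed RNA switches were transcribed on Illumina chips by stalled E. coli RNA polymerase and titrated with SNAP-549-labelled MS2 coat protein from 0.7 or 1.5 nM, doubling to 3 µM. Step length ran from 0.8–1.5 h at the lowest concentration to 10–20 min at the highest. The apparent KD is the median over clusters for each design, from curve-fitted normalised cluster fluorescence.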

[1] = input ligand: microRNA oligo, concentration not stated
[2] = Eterna round: R95, input ligand: FMN 200 uM
[3] = Eterna round: R95, input ligand: microRNA oligo, concentration not stated
[4] = Eterna round: R95, input ligand: none

Sequence	apparent KD of MS2 coat protein (input ligand: FMN 200 uM) [nM]	apparent KD of MS2 coat protein [1] [nM]	apparent KD of MS2 coat protein (input ligand: none) [nM]	apparent KD of MS2 coat protein [2] [nM]	apparent KD of MS2 coat protein [3] [nM]	apparent KD of MS2 coat protein [4] [nM]
ACAAGCAUUUAUCUUUUCAAAUAUUAUCGUCUUAUAAUUACAUGAGGAUCACCCAUGUAUAGAGGGUGAGAGAUACU [JR_Sensorv2_tov2_Sub552] (Eterna round: R96, puzzle: Sensor v2, turn-off variant 2)	61.1	121	58.1			
ACAAGCUCUGUGGGUGGUGACAUGAGGAUCACCCAUGUUUUGCUCGUCUUGUGCCGGCCGGCCCGCGGCCGGCCGGC [-40.6, -69.5, A 12%] (Eterna round: R97, puzzle: Sensor, turn-off variant 1)	718		885			
ACAAGCUUAAUCUGUAUGAACAUGAGGAUCACCCAUGUAAAAGGGAAUACUUUUGGGUUUUUUAUAGCUCGUCUUAU [JR_STOV1_Sub019] (Eterna round: R97, puzzle: Sensor, turn-off variant 1)	52		49.5			
ACAAGCUUGUAAUGAUUGAACAUGAGGAUCACCCAUGUAAAUGGAAGAACCAAUUUGAUAAGAUAAACUCGUCUUAU [JR_STOV1_Sub005] (Eterna round: R97, puzzle: Sensor, turn-off variant 1)	56.9		55.7			
ACAAGCUUGUAAUGAUUUAACAUGAGGAUCACCCAUGUAAAUGGAAGAACCAAUUUGAUAUGAUUUACUCGUCUUAU [JR_STOV1_Sub008] (Eterna round: R97, puzzle: Sensor, turn-off variant 1)	495		589			
ACAAGCUUUUUGCUCGGGUACAUGAGGAUCACCCAUGUUGUGUUUUAUUGUUUUUGAUUGUUCGUGCGCUGCAGGUU [JR_SV3TOV1_Sub074] (puzzle: Sensor v3, turn-off variant 1)				42.7	38.5	58.3
ACACAGCAAGGAUAUACAUGAGGAUCACCCAUGUGGUGGCCGUUACGGUAGGACUAGUGUAGAAGGUGCAUUGG [EX3 #32] (Eterna round: R97, puzzle: Exclusion 3)	637		469			
ACACUGCGAGGAUAUACAUGAGGAUCACCCAUGUUAAGGAAGUCAAGGUUAAUUUAAGGUAGAAGGCGCGUAUU [JR_Ex3_Sub012] (Eterna round: R97, puzzle: Exclusion 3)	54.6		38.2			
ACAGUGUUAGGAUAUGUGAGAGUUAGUCUCGACUAGUCGAAGCAGAAGGAACAUGAGGAUCACCCAUGUAGAUC [EX4 #78] (Eterna round: R97, puzzle: Exclusion 4)	114		46.7			
ACAUGACUGCUAGGAUAUAGAUGACAUGAGGAUCACCCAUGUUAUCCCAUGUUGAUGGAAACCGACUAGAAGGAGCAGCAUAUG [Ex NG2 #10] (Eterna round: R96, puzzle: Exclusion NG 2)	53.4	24.3	33			
ACAUGAGGAUCACCCAUGUCCGGCUGGUCCGUCUCGGCUGUCGAGGAUAUAGCUUGGUGUCCGCGCUAGAAGGUGGGAGCCGGC [Aenatbe mod 71] (Eterna round: R96, puzzle: Exclusion NG 3)	166	105	154			
ACAUGAGGAUCACCCAUGUCCGUCUGGUCUGUCUCGGCUGUCGAGGAUAUAGCCCGGUAUCCGCGCUAGAAGGCGGGAGUCGGC [Aenatbe mod 97] (Eterna round: R96, puzzle: Exclusion NG 3)	23.1	24.5	29.6			
ACAUGAGGAUCACCCAUGUCGAGUACAUGAGGAUCACCCAUGUAGGAUAUGGUUCGCUUUGCGUGCUAGAAGGAUAUGUGAUGA [salish99_ExNG3_r04_512] (Eterna round: R96, puzzle: Exclusion NG 3)	488	229	326			
ACAUGAGGAUCACCCAUGUCGAGUACAUGAGGAUCACCCAUGUAGGAUAUGGUUCGCUUUGCGUGCUAGAAGGAUAUGUGUUGA [salish99_ExNG3_r04_510] (Eterna round: R96, puzzle: Exclusion NG 3)	321	148	226			
ACAUGAGGAUCACCCAUGUGAAAAGAAUGGCUGACACAGAGAUAGGAUAUAUGUGCAUAUCUAACAUAGAAGGGUCAUGACUGG [Deportation 79 - Jieux - Exclusion NG 3] (Eterna round: R96, puzzle: Exclusion NG 3)	28.6	21.6	33.1			
ACAUGAGGAUCACCCAUGUGACAAGAAUGGCUGAUACAGAGAUAGGAUAUAGGUGCAUAUCUAACCUAGAAGGGUCAUGACUGG [Deportation 75 - Jieux - Exclusion NG 3] (Eterna round: R96, puzzle: Exclusion NG 3)	53.4	34.3	37			

Sequence	apparent KD of MS2 coat protein (input ligand: FMN 200 uM) [nM]	apparent KD of MS2 coat protein [1] [nM]	apparent KD of MS2 coat protein (input ligand: none) [nM]	apparent KD of MS2 coat protein [2] [nM]	apparent KD of MS2 coat protein [3] [nM]	apparent KD of MS2 coat protein [4] [nM]
ACAUGAGGAUCACCCAUGUGACCACGAUGGCUGAUGUAGACCUAGGAUAUGAGUGAAUAUCUAUCUCAGAAGGAGGUUGACUGG [Deportation 50 - Jieux - Exclusion NG 3] (Eterna round: R96, puzzle: Exclusion NG 3)	46.7	52.1	61.2			
ACAUGAGGAUCACCCAUGUGACCACGAUGGCUGAUGUAGAGACAGGAUAUGUGUGAAUAUCUAUCACAGAAGGGUCUUGACUGG [Deportation 54 - Jieux - Exclusion NG 3] (Eterna round: R96, puzzle: Exclusion NG 3)	35.3	25.7	31.3			
ACAUGAGGAUCACCCAUGUUCGGCUGGUCCGUUUCGGCUGUCGAGGAUAUAGUUCGGUGUCCGCGCUAGAAGGCGGGAGCUGGC [Aenatbe mod 64] (Eterna round: R96, puzzle: Exclusion NG 3)	167	39	68.5			
ACAUGUAAUGUAGGAUAUUUUACACAUGAGGAUCACCCAUGUGACCAGAGGCAUUGCUAUGAGUAAAAGAAGGGUAUGUACAUG [Ex NG2 #58] (Eterna round: R96, puzzle: Exclusion NG 2)	47	27.8	42.3			
ACAUGUAUUGCAGGAUAUGGGACACAUGAGGAUCACCCAUGUGACUACAUGUCAUACCACGCGUCUCAGAAGGGUAUGUACAUG [Ex NG2 #39] (Eterna round: R96, puzzle: Exclusion NG 2)	27.7	14	21.5			
ACAUGUGUUGUAGGAUAUAGGACACAUGAGGAUCACCCAUGUGGAUUCAUGUCUAAGGAAGCGUCCUAGAAGGACGACAACAUG [Ex NG2 #26] (Eterna round: R96, puzzle: Exclusion NG 2)	29.1	16.3	20			
ACAUUGAUUGUGAGGAUAUCGAUGUGAUGGUAUGUCGAGAAGGCACAUGAGGAUCACCCAUGUGGGUUGUAGCA [JR_BMEx4_Sub035] (Eterna round: R97, puzzle: Brourd's mod of Exclusion 4)	291		95.2			
ACCAAUCAUGUAGGAUAUGCGUGGCGAAGCUAUGCAGAAGGACAUGAGGAUCACCCAUGUGCUUCCGUCUGCGUACAGACGGUA [Mat - Exclusion NG 1 - Mod of JL - D17] (Eterna round: R96, puzzle: Exclusion NG 1)	49.2	38.3	92.3			
ACCAUGUCUGAGGAUAUGCAAGCGUACCACGCGGUAGAAGGCAGCACAUGAGGAUCACCCAUGUGGGUAUGCUA [Inanenqu] (puzzle: Exclusion 6)				15.3	9.92	14.8
ACCGAUGUGCAAGGAUAUGACAUGAGGAUCACCCAUGUCAAAACAAGAAGAACGGGUGUGCCUCCUUAGAAGGUGCACAAACGA [Eternabot solution 2] (Eterna round: R96, puzzle: Exclusion NG 2)	26.1	17.1	24			
ACCGUGUGAGGAUAUCCGUAGCUGAGGCACCUCGCAAACAUGGAGAAGGCACAUGAGGAUCACCCAUGUGAACC [Eternabot (Original) Solution 27] (Eterna round: R97, puzzle: Exclusion 4)	47.1		23.8			
ACCUCACAUGAGGAUCACCCAUGUCAGGAUAUAAUUUCAAACAUCAAUCGCGGCGCUGAGAGAAGGGUCAAAAC (Eterna round: R97, puzzle: Exclusion 1)	15.7		15.9			
ACCUCACUUGAGGAUCACCCAAGUCAGGAUAUACUCGUUUGCCGAAAGACGCGGCAUUGUAGAAGGGACGGGUU [Raortiza] (Eterna round: R97, puzzle: Exclusion 1)	26.6		15.5			
ACCUUACUGGUCAGGAUAUACAGUCUUUGGUGUGUGUAGAAGGGACAUGAGGAUCACCCAUGUAGGUUGCAGUA [alecazam60] (Eterna round: R97, puzzle: Brourd's mod of Exclusion 4)	77.6		67.7			
ACGAUGAUCGAAAAGUGUAAAUCGACAUGAGGAUCACCCAUGUAGGAUAUGGCUACGAAAAGUAGUCAGAAGGGCAUGUCAUCA [3 Av 11 mod - 1] (Eterna round: R96, puzzle: Exclusion NG 3)	36.9	25.7	31.1			
